Laboratory results reported in patent US20050191240A1 (BIOSYNTHEMA, published 2005).
*1 amine or outer side, *2 acyl side, *3 side chain or, on linkers, in order; H or OH if unused. [ ]: non-standard residue; d: D form. The star is where a group is joined. trans‑Cha(4-CH2NH2) = trans-(4-aminomethyl)cyclohexylalanine, O=C([C@H](C[C@H]1CC[C@H](CN[*:3])CC1)N[*:1])[*:2]; Gly(1-amidinopiperidin-4-yl) = N=C(N)N1CCC([C@H](N)C(=O)O)CC1; DTPA = O=C(O)CN(CCN(CC(=O)O)CC(=O)O)CCN(CC(=O)O)CC(=O)*; Phe(4-guanidino) = N=C(N)Nc1ccc(C[C@H](N)C(=O)O)cc1; homoAla(PipAm) = (N-amidinopiperidinyl)homoalanine; Ala(PipAm) = (N-amidinopiperidinyl)alanine; Dmt = Cc1cc(O)cc(C)c1C[C@H](N)C(=O)O; mTyr = N[C@@H](Cc1cccc(O)c1)C(=O)O; Ala(cPr) = N[C@@H](CC1CC1)C(=O)O; AzeCA = azetidinecarboxylic acid; tBuAla = CC(C)(C)C[C@H](N)C(=O)O; Cha = N[C@@H](CC1CCCCC1)C(=O)O; Chg = N[C@H](C(=O)O)C1CCCCC1; Tle = CC(C)(C)[C@H](N)C(=O)O; Aba(Apy) = not defined here; PipGly = piperidinylglycine; NHOH = ON*

B1: DTPA-DLys-Pro-Gly(PipAm)-Arg-Pro-Tyr-Ile-Leu-OH (peptide)
peptide: KPXRPYIL
modifications: N-terminal DTPA; D-Lys at 1; Gly(PipAm) ((N-amidinopiperidinyl)glycine) at 3 (X)
notes: also called Compound II
B2: DTPA-DLys-Pro-(4-Gu)Phe-Arg-Pro-Tyr-Ile-Leu-OH (peptide)
peptide: KPXRPYIL
modifications: N-terminal DTPA; D-Lys at 1; (4-Gu)Phe [Phe(4-guanyl)] at 3 (X)
notes: also called Compound I; DTPA-DLys-Pro-Phe(4-guanyl)-Arg-Pro-Tyr-Ile-Leu-OH
B3: DTPA-DLys-Pro-(4-Gu)Phe-(4-Gu)Phe-Pro-Tyr-Ile-Leu-OH (peptide)
peptide: {DTPA}-[dK]P[Phe(4-guanidino)][Phe(4-guanidino)]PYIL-OH
SMILES: CC[C@H](C)[C@H](NC(=O)[C@H](Cc1ccc(O)cc1)NC(=O)[C@@H]1CCCN1C(=O)[C@H](Cc1ccc(NC(=N)N)cc1)NC(=O)[C@H](Cc1ccc(NC(=N)N)cc1)NC(=O)[C@@H]1CCCN1C(=O)[C@@H](CCCCN)NC(=O)CN(CCN(CCN(CC(=O)O)CC(=O)O)CC(=O)O)CC(=O)O)C(=O)N[C@@H](CC(C)C)C(=O)O
notes: also called DTPA-DLys-Pro-Phe(4-guanyl)-Phe(4-guanyl)-Pro-Tyr-Ile-Leu-OH
B4: DTPA-DTyr-Glu-Asn-Lys-Pro-Gly(PipAm)-Arg-Pro-Tyr-tBuGly-tBuAla-OH (peptide)
peptide: {DTPA}-[dY]ENKP[Gly(1-amidinopiperidin-4-yl)]RPY[Tle][tBuAla]-OH
SMILES: CC(C)(C)C[C@H](NC(=O)[C@@H](NC(=O)[C@H](Cc1ccc(O)cc1)NC(=O)[C@@H]1CCCN1C(=O)[C@H](CCCNC(=N)N)NC(=O)[C@@H](NC(=O)[C@@H]1CCCN1C(=O)[C@H](CCCCN)NC(=O)[C@H](CC(N)=O)NC(=O)[C@H](CCC(=O)O)NC(=O)[C@@H](Cc1ccc(O)cc1)NC(=O)CN(CCN(CCN(CC(=O)O)CC(=O)O)CC(=O)O)CC(=O)O)C1CCN(C(=N)N)CC1)C(C)(C)C)C(=O)O
notes: also called Compound XV
B5: DTPA-DTyr-Glu-Asn-Lys-Pro-Gly(PipAm)-Arg-Pro-Tyr-tBuGly-Cha-OH (peptide)
peptide: {DTPA}-[dY]ENKP[Gly(1-amidinopiperidin-4-yl)]RPY[Tle][Cha]-OH
SMILES: CC(C)(C)[C@H](NC(=O)[C@H](Cc1ccc(O)cc1)NC(=O)[C@@H]1CCCN1C(=O)[C@H](CCCNC(=N)N)NC(=O)[C@@H](NC(=O)[C@@H]1CCCN1C(=O)[C@H](CCCCN)NC(=O)[C@H](CC(N)=O)NC(=O)[C@H](CCC(=O)O)NC(=O)[C@@H](Cc1ccc(O)cc1)NC(=O)CN(CCN(CCN(CC(=O)O)CC(=O)O)CC(=O)O)CC(=O)O)C1CCN(C(=N)N)CC1)C(=O)N[C@@H](CC1CCCCC1)C(=O)O
notes: also called Compound XIV
B6: DTPA-DLys-Pro-(4-Gu)Phe-Arg-Pro-Tyr-tBuGly-Leu-OH (peptide)
peptide: {DTPA}-[dK]P[Phe(4-guanidino)]RPY[Tle]L-OH
notes: also called Compound IX; DTPA-DLys-Pro-Phe(4-guanyl)-Arg-Pro-Tyr-tBuGly-Leu-OH
B7: DTPA-DLys-Pro-Arg-(4-Gu)Phe-Pro-Tyr-Ile-Leu-OH (peptide)
peptide: KPRXPYIL
modifications: N-terminal DTPA; D-Lys at 1; (4-Gu)Phe [Phe(4-guanyl)] at 4 (X)
notes: also called DTPA-DLys-Pro-Arg-Phe(4-guanyl)-Pro-Tyr-Ile-Leu-OH
B8: DTPA-DTyr-Glu-Asn-Lys-Pro-Gly(PipAm)-Arg-Pro-Tyr-tBuGly-Leu-OH (peptide)
peptide: {DTPA}-[dY]ENKP[Gly(1-amidinopiperidin-4-yl)]RPY[Tle]L-OH
SMILES: CC(C)C[C@H](NC(=O)[C@@H](NC(=O)[C@H](Cc1ccc(O)cc1)NC(=O)[C@@H]1CCCN1C(=O)[C@H](CCCNC(=N)N)NC(=O)[C@@H](NC(=O)[C@@H]1CCCN1C(=O)[C@H](CCCCN)NC(=O)[C@H](CC(N)=O)NC(=O)[C@H](CCC(=O)O)NC(=O)[C@@H](Cc1ccc(O)cc1)NC(=O)CN(CCN(CCN(CC(=O)O)CC(=O)O)CC(=O)O)CC(=O)O)C1CCN(C(=N)N)CC1)C(C)(C)C)C(=O)O
notes: also called Compound XIII
B9: DTPA-trans-Cha(4-CH2NH2)-Pro-Gly(PipAm)-Arg-Pro-Tyr-tBuGly-Leu-OH (peptide)
peptide: {DTPA}-[trans‑Cha(4-CH2NH2)]P[Gly(1-amidinopiperidin-4-yl)]RPY[Tle]L-OH
SMILES: CC(C)C[C@H](NC(=O)[C@@H](NC(=O)[C@H](Cc1ccc(O)cc1)NC(=O)[C@@H]1CCCN1C(=O)[C@H](CCCNC(=N)N)NC(=O)[C@@H](NC(=O)[C@@H]1CCCN1C(=O)[C@H](C[C@H]1CC[C@H](CN)CC1)NC(=O)CN(CCN(CCN(CC(=O)O)CC(=O)O)CC(=O)O)CC(=O)O)C1CCN(C(=N)N)CC1)C(C)(C)C)C(=O)O
B10: DTPA-DLys-Pro-Gly(PipAm)-Arg-Pro-Tyr-tBuGly-Cha-OH (peptide)
peptide: {DTPA}-[dK]P[Gly(1-amidinopiperidin-4-yl)]RPY[Tle][Cha]-OH
SMILES: CC(C)(C)[C@H](NC(=O)[C@H](Cc1ccc(O)cc1)NC(=O)[C@@H]1CCCN1C(=O)[C@H](CCCNC(=N)N)NC(=O)[C@@H](NC(=O)[C@@H]1CCCN1C(=O)[C@@H](CCCCN)NC(=O)CN(CCN(CCN(CC(=O)O)CC(=O)O)CC(=O)O)CC(=O)O)C1CCN(C(=N)N)CC1)C(=O)N[C@@H](CC1CCCCC1)C(=O)O
B11: DTPA-DLys-Pro-Gly(PipAm)-Arg-Pro-Tyr-tBuGly-Cpa-OH (peptide)
peptide: {DTPA}-[dK]P[Gly(1-amidinopiperidin-4-yl)]RPY[Tle][Ala(cPr)]-OH
SMILES: CC(C)(C)[C@H](NC(=O)[C@H](Cc1ccc(O)cc1)NC(=O)[C@@H]1CCCN1C(=O)[C@H](CCCNC(=N)N)NC(=O)[C@@H](NC(=O)[C@@H]1CCCN1C(=O)[C@@H](CCCCN)NC(=O)CN(CCN(CCN(CC(=O)O)CC(=O)O)CC(=O)O)CC(=O)O)C1CCN(C(=N)N)CC1)C(=O)N[C@@H](CC1CC1)C(=O)O
B12: DTPA-DLys-Pro-Gly(PipAm)-Arg-Pro-Tyr-tBuGly-tBuAla-OH (peptide)
peptide: {DTPA}-[dK]P[Gly(1-amidinopiperidin-4-yl)]RPY[Tle][tBuAla]-OH
SMILES: CC(C)(C)C[C@H](NC(=O)[C@@H](NC(=O)[C@H](Cc1ccc(O)cc1)NC(=O)[C@@H]1CCCN1C(=O)[C@H](CCCNC(=N)N)NC(=O)[C@@H](NC(=O)[C@@H]1CCCN1C(=O)[C@@H](CCCCN)NC(=O)CN(CCN(CCN(CC(=O)O)CC(=O)O)CC(=O)O)CC(=O)O)C1CCN(C(=N)N)CC1)C(C)(C)C)C(=O)O

What follows are molecules tested against T1, neurotensin receptors (frozen tissue sections from receptor-positive human tumors) (human, UniProt P30989 1-418) (assay: competitive binding vs radioiodinated native neurotensin, human tumor sections).
T1 construct: whole, on cells
T1 sequence (P30989 whole entry): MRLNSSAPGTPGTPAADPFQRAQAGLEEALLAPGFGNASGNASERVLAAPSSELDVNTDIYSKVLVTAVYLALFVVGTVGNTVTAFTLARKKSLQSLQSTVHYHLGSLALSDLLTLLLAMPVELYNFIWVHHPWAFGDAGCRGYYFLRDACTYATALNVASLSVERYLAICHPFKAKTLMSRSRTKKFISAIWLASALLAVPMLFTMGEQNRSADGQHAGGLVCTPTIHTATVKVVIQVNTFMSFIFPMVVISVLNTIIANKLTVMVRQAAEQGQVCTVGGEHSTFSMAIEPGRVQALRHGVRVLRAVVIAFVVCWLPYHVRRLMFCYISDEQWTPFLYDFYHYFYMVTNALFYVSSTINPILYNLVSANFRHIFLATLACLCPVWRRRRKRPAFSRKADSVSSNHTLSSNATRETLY
Source text: (§1) Frozen tissue sections from receptor-positive human tumors were used in a competitive binding assay.

| Molecule | Kd |
| --- | --- |
| B1 | 2.7 nM |
| {DTPA}-[dK]P[Aba(Apy)]RPYIL-OH (reading uncertain, also called Compound III) [DTPA-DLys-Pro-Aba(Apy)-Arg-Pro-Tyr-Ile-Leu-OH] | 68 nM |
| B2 | 8.6 nM |

Target: T1, neurotensin receptors (frozen tissue …)
Assay: as above
Remark: another data set of the same source
Source text: as §1

| Molecule | Kd |
| --- | --- |
| {DTPA}-[dK]P[Gly(1-amidinopiperidin-4-yl)]RPY[Tle]L-{NHOH} [DTPA-DLys-Pro-Gly(PipAm)-Arg-Pro-Tyr-tBuGly-Leu-HA] | 49 nM |
| B3 | 175 nM |
| B4 | 3.5 nM |
| B1 | 2.7 nM |
| B5 | 4.5 nM |
| {DTPA}-[dK]P[Ala(PipAm)]RPY[Tle]L-OH [DTPA-DLys-Pro-Ala(PipAm)-Arg-Pro-Tyr-tBuGly-Leu-OH] | 14 nM |
| B6 | 12.5 nM |
| B7 | 83 nM |
| {DTPA}-[dK]P[Gly(1-amidinopiperidin-4-yl)]RPY[Chg]L-OH [DTPA-DLys-Pro-Gly(PipAm)-Arg-Pro-Tyr-Chg-Leu-OH] | 25 nM |
| {DTPA}-[dK]P[Aba(Apy)]RPYIL-OH (reading uncertain, also called Compound III) [DTPA-DLys-Pro-Aba(Apy)-Arg-Pro-Tyr-Ile-Leu-OH] | 68 nM |
| B2 | 8.6 nM |
| {DTPA}-[dK]P[homoAla(PipAm)]RPY[Tle]L-OH [DTPA-DLys-Pro-homoAla(PipAm)-Arg-Pro-Tyr-tBuGly-Leu-OH] | 14 nM |
| {DTPA}-[dK]P[Gly(1-amidinopiperidin-4-yl)]RP[dY][Tle]L-OH [DTPA-DLys-Pro-Gly(PipAm)-Arg-Pro-DTyr-tBuGly-Leu-OH] | 6.4 nM |
| {DTPA}-[dK]P[Gly(1-amidinopiperidin-4-yl)]RPY[Tle]L-OH (also called Compound X) [DTPA-DLys-Pro-Gly(PipAm)-Arg-Pro-Tyr-tBuGly-Leu-OH] | 3.5 nM |
| B8 | 4.5 nM |
| {DTPA}-[dK]PR[Aba(Apy)]PYIL-OH (reading uncertain) [DTPA-DLys-Pro-Arg-Aba(Apy)-Pro-Tyr-Ile-Leu-OH] | 1200 nM |

The molecules below were run against neurotensin receptors (frozen tissue sections from receptor-positive human tumors) (human) (UniProt P30989) in the same assay as above.
neurotensin receptors (frozen tissue sections from receptor-positive human tumors) (human), sequence (P30989 whole entry): as above

| Molecule | Kd |
| --- | --- |
| DTPA-DLys-Pro-Aba(Apy)-Aba(Apy)-Pro-Tyr-Ile-Leu-OH (peptide) | > 10000 nM |
| B9 | 5 nM |
| B10 | 12 nM |
| {DTPA}-[dK][AzeCA][Gly(1-amidinopiperidin-4-yl)]RPY[Tle]L-OH [DTPA-DLys-AzeCA-Gly(PipAm)-Arg-Pro-Tyr-tBuGly-Leu-OH] | 24 nM |
| B11 | 290 nM |
| {DTPA}-[dK]P[Gly(1-amidinopiperidin-4-yl)]RP[Dmt][Tle]L-OH [DTPA-DLys-Pro-Gly(PipAm)-Arg-Pro-(2,6-diMe)Tyr-tBuGly-Leu-OH] | 45 nM |
| {DTPA}-[dK]P[Gly(1-amidinopiperidin-4-yl)]RP[mTyr][Tle]L-OH [DTPA-DLys-Pro-Gly(PipAm)-Arg-Pro-mTyr-tBuGly-Leu-OH] | 300 nM |
| {DTPA}-[PipGly]P[Gly(1-amidinopiperidin-4-yl)]RPY[Tle]L-OH [DTPA-PipGly-Pro-Gly(PipAm)-Arg-Pro-Tyr-tBuGly-Leu-OH] | 3.9 nM |
| B12 | 7.3 nM |
| {DTPA}-[dK]P[Gly(1-amidinopiperidin-4-yl)]R[AzeCA]Y[Tle]L-OH [DTPA-DLys-Pro-Gly(PipAm)-Arg-AzeCA-Tyr-tBuGly-Leu-OH] | 740 nM |
| {DTPA}-[dK]P[Gly(1-amidinopiperidin-4-yl)][PipGly]PY[Tle]L-OH [DTPA-DLys-Pro-Gly(PipAm)-PipGly-Pro-Tyr-tBuGly-Leu-OH] | 140 nM |

Target: T1, neurotensin receptors (frozen tissue …)
Assay: as above
Remark: another data set of the same source
Source text: as §1

| Molecule | Kd | IC50 |
| --- | --- | --- |
| B3 | 175 nM |  |
| B1 | 2.7 nM |  |
| B6 |  | 12.5 nM |
| B7 | 83 nM |  |
| {DTPA}-[dK]P[Aba(Apy)]RPYIL-OH (reading uncertain, also called Compound III) [DTPA-DLys-Pro-Aba(Apy)-Arg-Pro-Tyr-Ile-Leu-OH] | 68 nM |  |
| B2 | 8.6 nM |  |
| {DTPA}-[dK]P[Gly(1-amidinopiperidin-4-yl)]RPY[Tle]L-OH (also called Compound X) [DTPA-DLys-Pro-Gly(PipAm)-Arg-Pro-Tyr-tBuGly-Leu-OH] |  | 3.5 nM |
| {DTPA}-[dK]PR[Aba(Apy)]PYIL-OH (reading uncertain) [DTPA-DLys-Pro-Arg-Aba(Apy)-Pro-Tyr-Ile-Leu-OH] | 1200 nM |  |
